Assay results taken from US11643670B2, “Methods of enhancing chromosomal homologous recombination” (Massachusetts Institute of Technology, priority 2018, dated 2023).

Key:
Chd2^R1684H locus = assay: Genotyping of individual blastomeres of 2-cell embryos; assay type: cell-based, mouse; details: blastomeres collected at 24hpf, IVF strategy, co-injected with RAD51
Method: Zygotes were prepared by IVF as described above and cultured until 24hpf in FHM at 37° C. and 5% CO2. Two-cell embryos were transferred 10 at a time into room temperature acidified Tyrode's solution. Embryos were monitored by microscopy and were transferred back to FHM once the zona pellucida was dissolved. Individual blastomeres were collected via mechanical dissociation with a glass micropipette and transferred to 4 μL nuclease-free water. Blastomeres were then lysed and processed for genotyping as previously described.
After fertilization, the maternal and paternal pronuclei remain until the completion of S-phase, at which time the pronuclei fuse in preparation for mitosis. […] To begin to address the timing of zygotic ICHR, genotyping of individual blastomeres was performed in early 2-cell embryos generated through the IVF strategy and co-injected with RAD51. […] Because the blastomeres were collected early in the 2-cell stage, it is unlikely that all observed mosaicism resulted from editing events after the completion of mitosis. […]

Tyr^C89S locus = assay: Tyr^C89S knock-in by three-component CRISPR, genotyping/albino phenotype of F0 pups; assay type: in vivo, mouse
Method: tracrRNA, crRNAs, and ssODNs were synthesized by Integrated DNA Technologies (TABLE 1). All injection mixtures were prepared in a final volume of 50 μL according to the following methodology: Using RNase-free water, reagents, and consumables, crRNA (final concentration 0.61 μM), tracrRNA (final concentration 0.61 μM), and ultrapure Tris-HCl, pH 7.39 (final concentration 10 mM, ThermoFisher) were mixed and incubated at 95° C. for 5 minutes. The mixtures were cooled to room temperature for 10 minutes on the benchtop, and then, EnGen Cas9-NLS S. pyogenes (New England Biolabs) was added to a final concentration of 30 ng/μL. The mixtures were incubated at 37° C. for 15 minutes before adding any remaining components: ssODN (final concentration 3 ng/μL or 30 ng/μL), RAD51 (Creative Biomart, final concentration 10 ng/μL). Injection mixtures were stored on ice and briefly heated to 37° C. prior to injection. For experiments utilizing RS-1, embryos were cultured in KSOM-AA (EMD Millipore MR-121-D) with […] RS-1 (Sigma) dissolved in DMSO or DMSO (Sigma, 1:1000) for 24 hours, washed, and cultured in EmbryoMax FHM HEPES Buffered Medium (Sigma) until collection for genotyping.
For all experiments except those described in FIG. 6, the male pronucleus was injected. Injections performed for the CPI portion of FIG. 6 were targeted to the cytoplasm. […]

B1: RAD51: recombinant human strand exchange protein RAD51 (Creative Biomart RAD51-134H), transcript variant 4 (protein, UniProt Q06609 2-339, looked up)
DNA repair protein RAD51 …: AMQMQLEANADTSVEEESFGPQPISRLEQCGINANDVKKLEEAGFHTVEAVAYAPKKELINIKGISEAKADKILAEAAKLVPMGFTTATEFHQRRSEIIQITTGSKELDKLLQGGIETGSITEMFGEFRTGKTQICHTLAVTCQLPIDRGGGEGKAMYIDTEGTFRPERLLAVAERYGLSGSDVLDNVAYARAFNTDHQTQLLYQASAMMVESRYALLIVDSATALYRTDYSGRGELSARQMHLARFLRMLLRLADEFGVAVVITNQVVAQVDGAAMFAADPKKPIGGNIIAHASTTRLYLRKGRGETRICKIYDSPCLPEAEAMFAINADGVGDAKD
**Q.** With B1 as the molecule, how does the “mosaicism in embryos with an ICHR event in at least one cell” value (Chd2^R1684H locus) read?
**A.** 4/6

**Q.** What about the “pups with albino phenotype from homozygous KI of the Tyr^C89S allele” value (Tyr^C89S locus; F0 pups with RAD51, 12% without) of the same molecule?
**A.** 44.4%

**Q.** What about the “homozygous KI rate relative to injection without RAD51” value (Tyr^C89S locus; Tyr locus) of the same molecule?
**A.** more than doubled
